Measurements from patent US20210292381A1.

B1: P2g (modified gluten peptide …) (peptide)
peptide: KLPYPQGRLPGPQPQ
B2: P3f (modified gluten peptide …) (peptide)
peptide: PYPHPWLRGPQPQPF
B3: P3d (modified gluten peptide …) (peptide)
peptide: PYSQPESPYMQPQPF
B4: P3c (modified gluten peptide …) (peptide)
peptide: PYPHPRLPYTQPQPF
B5: P1g (modified gluten peptide …) (peptide)
peptide: LQLQPFWQPKLPGPQ
B6: P1f (modified gluten peptide …) (peptide)
peptide: LQLQPFDQPRLPWPQ

These binders were tested against purified MHC (assay: competition with radiolabeled known MHC binding peptide for purified MHC).

Compared with B1, B2 is 4.3-fold lower in IC50: 3.75 µM for the first, 0.879 µM for the second.

First: B3
Second: B4
The IC50 of the first is 1.5-fold lower: 1.99 µM for the first, 2.99 µM for the second. The first is the more potent here.

First: B5
Second: B6
The IC50 of the first is 2.1-fold higher: 11.2 µM for the first, 5.44 µM for the second.
